According to FireProtDB:
Values joined by “and” are separate entries in the source; they are usually repeats but may differ in a detail not shown here. Equal values may be shown once.

Details: whole UniProt chain shown
[1] = Bacillus amyloliquefaciens, pH 5.8, Thermal, DSC, acetate 10 mM, reversible: yes
[2] = Bacillus amyloliquefaciens, pH 6.2, Thermal, DSC, PIPES 0.01 M, NaCl 0.05 M, reversible: yes(54%)
[3] = Bacillus amyloliquefaciens, pH 6.3, 25 °C, GdnSCN, CD, Sodium acetate 50 mM, reversible: yes
[4] = Bacillus amyloliquefaciens, pH 6.3, 25 °C, Thermal, Fluorescence, MES 50 mM, KCl, reversible: yes
[5] = Bacillus amyloliquefaciens, pH 6.3, 25 °C, Urea, CD, MES 50 mM, reversible: yes
[6] = Bacillus amyloliquefaciens, pH 6.3, 25 °C, Urea, Fluorescence, MES 19.3 mM, reversible: yes
[7] = Bacillus amyloliquefaciens, pH 6.3, 25 °C, Urea, Fluorescence, MES 50 mM, reversible: yes
[8] = Bacillus amyloliquefaciens, pH 6.3, Thermal, DSC, MES 50 mM, reversible: yes
[9] = Bacillus amyloliquefaciens, pH 8, 25 °C, Urea, CD, Tris-HCl 25 mM

B1: Ribonuclease wild type, P00648 (protein)
chain: MMKMEGIALKKRLSWISVCLLVLVSAAGMLFSTAAKTETSSHKAHTEAQVINTFDGVADYLQTYHKLPDNYITKSEAQALGWVASKGNLADVAPGKSIGGDIFSNREGKLPGKSGRTWREADINYTSGFRNSDRILYSSDWLIYKTTDHYQTFTKIR
[1]
  Tm: 54.3 °C
  heat capacity change of unfolding: 1.37 kcal/mol/K
  unfolding enthalpy (calorimetric): 126 kcal/mol
  unfolding enthalpy (van 't Hoff): 124 kcal/mol
Bacillus amyloliquefaciens, pH 6, 25 °C, Thermal, CD, MES 50 mM, reversible: yes
  unfolding free energy: 10 kcal/mol
[2]
  Tm: 54.8 °C
  unfolding enthalpy (calorimetric): 128 kcal/mol
[3]
  denaturant m value: 14.3 kcal/mol/M
  denaturant midpoint (higher = more stable): 0.77 M
  unfolding free energy: 11 kcal/mol
Bacillus amyloliquefaciens, pH 6.3, 25 °C, Thermal, DSC, MES 50 mM, reversible: yes
  unfolding free energy: 8.52 kcal/mol
[4]
  heat capacity change of unfolding: 1.88 kcal/mol/K
  unfolding enthalpy (van 't Hoff): 84.5 kcal/mol
  unfolding free energy: 10.2 kcal/mol
Bacillus amyloliquefaciens, pH 6.3, 25 °C, Thermal, Fluorescence, MES 50 mM
  unfolding free energy: 10.2 kcal/mol
[5]
  denaturant m value: 2.02 kcal/mol/M
  denaturant midpoint (higher = more stable): 4.53 M
  unfolding free energy: 9.18 kcal/mol
[6]
  denaturant midpoint (higher = more stable): 2.27 M
  unfolding free energy: 10.5 kcal/mol
[7]
  denaturant m value: 1.92 kcal/mol/M
  denaturant midpoint (higher = more stable): 4.58 M
  unfolding free energy: 8.79 kcal/mol
Bacillus amyloliquefaciens, pH 6.3, 25 °C, Urea, Fluorescence, MES 1 M
  unfolding free energy: 8.9 kcal/mol
[8]
  Tm: 51.5 °C
  unfolding enthalpy (calorimetric): 127 kcal/mol
  unfolding enthalpy (van 't Hoff): 126 kcal/mol
[9]
  denaturant m value: 1.84 kcal/mol/M
  unfolding free energy: 7.58 kcal/mol

B2: wild type, Q7M1T4 (protein)
chain: ASQTITVGPWGGPGGNGWDDGSYTGIRQIELSYKEAIGSFSVIYDLNGEPFSGPKHTSKLPYKNVKIELRFPDEFLESVSGYTAPFSALATPTPVVRSLTFKTNKGRTFGPYGDEEGTYFNLPIENGLIVGFKGRTGDLLDAIGVHMAL
Artocarpus integer, pH 7.4, Thermal, CD, phosphate buffered saline (PBS) 10 mM, NaCl 150 mM, reversible: no
  Tm: 65.8 °C
Artocarpus integer, pH 7.4, Thermal, Fluorescence, phosphate buffered saline (PBS) 10 mM, NaCl 150 mM, reversible: no
  Tm: 63.9 °C

B3: Thioredoxin wild type, P80579 (protein)
chain: ATMTLTDANFQQAIQGDKPVLVDFWAAWCGPCRMMAPVLEEFAEAHADKVTVAKLNVDENPETTSQFGIMSIPTLILFKGGRPVKQLIGYQPKEQLEAQLADVLQ
Alicyclobacillus acidocaldarius subsp. acidocaldarius, pH 7, GdHCl, CD, Sodium phosphate 10 mM, reversible: yes
  denaturant midpoint (higher = more stable): 2.9 M
Alicyclobacillus acidocaldarius subsp. acidocaldarius, pH 7, Thermal, CD, Sodium phosphate 10 mM, reversible: yes
  Tm: 84.5 °C and 88.2 °C
Alicyclobacillus acidocaldarius subsp. acidocaldarius, pH 7, Urea, CD, Sodium phosphate 10 mM, reversible: yes
  denaturant midpoint (higher = more stable): 6.7 M
